Positions count from the first letter of the chain named.
T1: CynoIL36R-ECD mFc recombinant protein (cynomolgus monkey)
T1 construct: Made in ExpiCHO, purified on Protein A; also called cynomolgus IL-36R extracellular region with mouse antibody heavy chain Fc
T1 chain: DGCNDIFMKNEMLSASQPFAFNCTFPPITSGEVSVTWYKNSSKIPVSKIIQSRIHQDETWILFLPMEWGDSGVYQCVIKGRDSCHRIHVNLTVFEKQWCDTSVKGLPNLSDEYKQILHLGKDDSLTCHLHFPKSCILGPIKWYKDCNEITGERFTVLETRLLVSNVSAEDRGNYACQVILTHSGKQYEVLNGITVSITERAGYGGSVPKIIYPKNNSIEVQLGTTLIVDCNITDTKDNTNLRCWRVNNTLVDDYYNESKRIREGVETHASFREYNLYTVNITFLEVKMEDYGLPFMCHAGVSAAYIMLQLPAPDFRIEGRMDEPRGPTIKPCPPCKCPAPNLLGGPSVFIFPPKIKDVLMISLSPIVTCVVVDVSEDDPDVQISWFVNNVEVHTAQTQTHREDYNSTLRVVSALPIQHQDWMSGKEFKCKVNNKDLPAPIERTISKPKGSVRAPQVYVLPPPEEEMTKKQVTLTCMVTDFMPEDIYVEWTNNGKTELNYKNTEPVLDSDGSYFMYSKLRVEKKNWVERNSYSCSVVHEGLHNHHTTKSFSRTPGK

T2: Human IL-1Rrp2/IL-1R6 protein, His Tag (ACROBiosystems, IL2-H52H6) (human, UniProt Q9HB29 20-335)
T2 construct: Bought protein; the soluble protein is likely only the extracellular part; also called hIL-36R; human IL36R antigen; not shown: His tag
T2 sequence: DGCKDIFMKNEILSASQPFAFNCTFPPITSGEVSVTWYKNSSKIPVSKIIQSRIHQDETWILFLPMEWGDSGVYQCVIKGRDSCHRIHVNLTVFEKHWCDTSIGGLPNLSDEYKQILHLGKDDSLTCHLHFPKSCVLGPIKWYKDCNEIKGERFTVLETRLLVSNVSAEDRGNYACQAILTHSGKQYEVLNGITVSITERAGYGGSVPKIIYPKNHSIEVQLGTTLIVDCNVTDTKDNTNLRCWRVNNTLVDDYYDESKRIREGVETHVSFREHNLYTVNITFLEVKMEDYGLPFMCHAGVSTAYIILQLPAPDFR

B1: BI655130 (antibody, human IgG1, kappa, L234A L235A)
heavy: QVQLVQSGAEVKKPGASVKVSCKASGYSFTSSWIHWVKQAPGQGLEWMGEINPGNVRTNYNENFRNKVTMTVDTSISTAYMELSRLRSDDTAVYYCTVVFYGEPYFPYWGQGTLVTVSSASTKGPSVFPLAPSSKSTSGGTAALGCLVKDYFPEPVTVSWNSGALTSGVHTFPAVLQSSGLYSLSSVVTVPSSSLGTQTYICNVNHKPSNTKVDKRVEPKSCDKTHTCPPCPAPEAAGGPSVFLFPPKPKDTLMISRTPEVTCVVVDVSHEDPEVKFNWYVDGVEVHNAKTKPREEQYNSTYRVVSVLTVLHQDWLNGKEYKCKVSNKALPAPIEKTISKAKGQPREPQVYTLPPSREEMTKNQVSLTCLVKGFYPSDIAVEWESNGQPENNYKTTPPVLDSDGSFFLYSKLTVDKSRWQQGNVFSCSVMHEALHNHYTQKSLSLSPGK
light: QIVLTQSPGTLSLSPGERATMTCTASSSVSSSYFHWYQQKPGQAPRLWIYRTSRLASGVPDRFSGSGSGTDFTLTISRLEPEDAATYYCHQFHRSPLTFGAGTKLEIKRTVAAPSVFIFPPSDEQLKSGTASVVCLLNNFYPREAKVQWKVDNALQSGNSQESVTEQDSKDSTYSLSSTLTLSKADYEKHKVYACEVTHQGLSSPVTKSFNRGEC
notes: also called Spesolimab
B2: hz72C1-1.2 (antibody, human IgG4 S228P, kappa)
heavy: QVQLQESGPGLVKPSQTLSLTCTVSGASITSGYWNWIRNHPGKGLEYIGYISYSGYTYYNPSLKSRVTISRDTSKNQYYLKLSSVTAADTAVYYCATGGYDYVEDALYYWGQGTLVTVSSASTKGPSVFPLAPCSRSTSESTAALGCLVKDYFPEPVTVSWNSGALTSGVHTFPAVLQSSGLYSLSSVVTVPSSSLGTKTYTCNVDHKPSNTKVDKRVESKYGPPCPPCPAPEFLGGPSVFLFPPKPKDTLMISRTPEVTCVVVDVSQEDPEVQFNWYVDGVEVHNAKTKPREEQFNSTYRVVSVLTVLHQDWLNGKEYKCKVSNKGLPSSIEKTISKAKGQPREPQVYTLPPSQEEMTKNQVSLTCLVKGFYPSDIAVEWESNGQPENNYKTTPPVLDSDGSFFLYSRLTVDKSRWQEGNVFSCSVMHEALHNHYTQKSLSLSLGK
light: DIQMTQSPSSLSASVGDRVTITCRASSNVRYMYWYQQKPGKAPKLWIYLTSNLASGVPSRFSGSGSGTSYTLTISSLQPEDFATYYCQQFTTSPYTFGQGTKLEIKRTVAAPSVFIFPPSDEQLKSGTASVVCLLNNFYPREAKVQWKVDNALQSGNSQESVTEQDSKDSTYSLSSTLTLSKADYEKHKVYACEVTHQGLSSPVTKSFNRGEC
notes: Humanized, human IgG4 / kappa
B3: hz72C1-2.1 (antibody, human IgG4 S228P, kappa)
heavy: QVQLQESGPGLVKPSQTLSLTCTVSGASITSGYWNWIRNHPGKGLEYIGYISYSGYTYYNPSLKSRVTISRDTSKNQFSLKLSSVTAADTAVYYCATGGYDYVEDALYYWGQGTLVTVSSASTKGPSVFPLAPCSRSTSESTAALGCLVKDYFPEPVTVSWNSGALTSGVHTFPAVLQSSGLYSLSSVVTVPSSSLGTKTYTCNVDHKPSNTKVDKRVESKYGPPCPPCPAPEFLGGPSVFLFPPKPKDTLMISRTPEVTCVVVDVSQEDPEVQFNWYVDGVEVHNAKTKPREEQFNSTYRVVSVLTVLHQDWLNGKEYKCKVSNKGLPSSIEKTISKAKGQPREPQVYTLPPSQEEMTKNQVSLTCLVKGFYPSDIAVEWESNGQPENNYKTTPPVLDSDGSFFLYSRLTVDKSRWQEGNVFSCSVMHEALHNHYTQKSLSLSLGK
light: B2 light with F90Y
notes: Humanized, human IgG4 / kappa
B4: hz72C1-2.3 (antibody, human IgG4 S228P, kappa)
heavy: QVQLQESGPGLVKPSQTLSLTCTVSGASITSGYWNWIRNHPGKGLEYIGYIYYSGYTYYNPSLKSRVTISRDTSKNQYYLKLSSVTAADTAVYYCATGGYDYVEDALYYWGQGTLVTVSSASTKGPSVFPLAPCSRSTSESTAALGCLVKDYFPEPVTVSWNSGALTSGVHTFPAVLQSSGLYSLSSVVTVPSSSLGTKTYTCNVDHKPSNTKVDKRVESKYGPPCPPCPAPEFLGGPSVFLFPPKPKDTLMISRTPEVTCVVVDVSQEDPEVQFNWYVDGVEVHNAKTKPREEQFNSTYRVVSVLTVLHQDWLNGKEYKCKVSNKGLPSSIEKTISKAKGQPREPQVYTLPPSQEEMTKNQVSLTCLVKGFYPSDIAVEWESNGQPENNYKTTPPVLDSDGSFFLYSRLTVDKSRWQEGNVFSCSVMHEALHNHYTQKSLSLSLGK
light: B2 light with F90Y
notes: Humanized, human IgG4 / kappa
B5: hz72C1-2.2 (antibody, human IgG4 S228P, kappa)
heavy: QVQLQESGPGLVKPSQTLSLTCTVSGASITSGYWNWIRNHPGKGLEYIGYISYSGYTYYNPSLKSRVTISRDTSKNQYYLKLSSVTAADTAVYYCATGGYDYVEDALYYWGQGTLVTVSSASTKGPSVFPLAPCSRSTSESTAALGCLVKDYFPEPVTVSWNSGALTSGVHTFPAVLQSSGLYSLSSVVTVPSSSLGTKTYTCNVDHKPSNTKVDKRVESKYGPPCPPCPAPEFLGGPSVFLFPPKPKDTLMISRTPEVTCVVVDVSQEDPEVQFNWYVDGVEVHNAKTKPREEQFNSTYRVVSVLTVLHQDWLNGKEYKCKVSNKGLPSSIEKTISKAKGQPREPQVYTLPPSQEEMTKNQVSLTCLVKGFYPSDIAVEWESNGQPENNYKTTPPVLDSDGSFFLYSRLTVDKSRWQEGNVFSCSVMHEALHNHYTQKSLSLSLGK
light: B2 light with F90Y
notes: Humanized, human IgG4 / kappa
B6: hz72C1-1.1 (antibody, human IgG4 S228P, kappa)
heavy: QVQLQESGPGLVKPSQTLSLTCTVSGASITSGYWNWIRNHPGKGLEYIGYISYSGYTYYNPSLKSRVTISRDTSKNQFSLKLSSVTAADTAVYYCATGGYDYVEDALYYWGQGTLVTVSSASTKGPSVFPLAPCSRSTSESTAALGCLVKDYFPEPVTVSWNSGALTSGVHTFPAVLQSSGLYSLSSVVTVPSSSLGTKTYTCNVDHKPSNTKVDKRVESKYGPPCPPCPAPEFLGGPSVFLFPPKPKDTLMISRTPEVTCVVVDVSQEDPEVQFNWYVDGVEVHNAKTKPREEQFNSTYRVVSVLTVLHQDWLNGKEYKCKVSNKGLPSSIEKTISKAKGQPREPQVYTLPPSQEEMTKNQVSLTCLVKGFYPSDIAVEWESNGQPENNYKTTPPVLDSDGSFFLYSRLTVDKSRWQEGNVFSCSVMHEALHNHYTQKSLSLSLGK
light: B2 light
notes: Humanized, human IgG4 / kappa; also called humanized 72C1 antibody 1.1
B7: hz72C1-1.3 (antibody, human IgG4 S228P, kappa)
heavy: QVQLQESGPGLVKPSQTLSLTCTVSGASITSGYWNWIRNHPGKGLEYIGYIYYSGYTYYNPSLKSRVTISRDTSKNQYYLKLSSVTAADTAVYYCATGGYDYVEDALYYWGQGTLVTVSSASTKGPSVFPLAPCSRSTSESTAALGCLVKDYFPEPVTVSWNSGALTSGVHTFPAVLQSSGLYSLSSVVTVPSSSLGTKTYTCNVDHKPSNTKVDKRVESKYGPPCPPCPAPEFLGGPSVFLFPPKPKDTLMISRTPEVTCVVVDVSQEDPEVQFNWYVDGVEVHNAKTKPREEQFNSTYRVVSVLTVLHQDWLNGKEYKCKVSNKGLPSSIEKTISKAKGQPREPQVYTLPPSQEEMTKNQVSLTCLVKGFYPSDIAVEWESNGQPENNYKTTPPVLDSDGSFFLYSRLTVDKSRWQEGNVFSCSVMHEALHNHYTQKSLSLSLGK
light: B2 light
notes: Humanized, human IgG4 / kappa
B8: chimeric 72C1 antibody (antibody, human IgG4 S228P, kappa)
heavy: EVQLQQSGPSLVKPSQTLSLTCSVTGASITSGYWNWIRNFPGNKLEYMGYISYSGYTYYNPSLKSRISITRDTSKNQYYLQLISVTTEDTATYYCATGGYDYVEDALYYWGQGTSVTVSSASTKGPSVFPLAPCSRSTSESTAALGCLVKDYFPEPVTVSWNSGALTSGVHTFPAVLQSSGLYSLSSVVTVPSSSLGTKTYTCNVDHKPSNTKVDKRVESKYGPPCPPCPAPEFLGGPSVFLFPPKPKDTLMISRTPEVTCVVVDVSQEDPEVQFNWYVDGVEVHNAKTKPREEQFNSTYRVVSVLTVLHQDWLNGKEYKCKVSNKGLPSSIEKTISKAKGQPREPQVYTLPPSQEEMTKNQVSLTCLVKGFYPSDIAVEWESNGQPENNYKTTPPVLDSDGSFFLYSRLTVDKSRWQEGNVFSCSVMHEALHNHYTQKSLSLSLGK
light: EILLTQSPAIMSATLGEKVTMSCRASSNVRYMYWYQLKSGASPKLWIYLTSNLASGVPARFSGSGSGTSYSLTISSVEAEDAATYFCQQFTTSPYTFGGGTKLEIKRTVAAPSVFIFPPSDEQLKSGTASVVCLLNNFYPREAKVQWKVDNALQSGNSQESVTEQDSKDSTYSLSSTLTLSKADYEKHKVYACEVTHQGLSSPVTKSFNRGEC
notes: Mouse variable regions on human IgG4 / kappa; also called xi72C1

Molecular target: T1, CynoIL36R-ECD mFc recombinant protein
Assay: ELISA, plate coated with CynoIL36R-ECD mFc, HRP-protein A/G, OD450
Procedure: The binding activity of anti-IL-36R antibodies to IL-36R was analyzed by ELISA using human IL-1Rrp2/IL-1R6 protein, His Tag (ACROBiosystems, IL2-H52H6) and CynoIL36R-ECD mFc (for detection of chimeric and humanized antibodies), and hIL36R-ECD hFc and CynoIL36R-ECD hFc protein (for detection of hybridoma antibodies) as antigens. A 96-well plate (Costar, 9018) was coated with 2 μg/mL antigen at 100 μL/well and incubated overnight at 4° C. After the 96-well plate was washed with a washing buffer (PBS containing 0.05% v/v Tween 20), a blocking buffer (PBS containing 2% bovine serum albumin) was added for blocking at 37° C. for 2 h. After the 96-well plate was washed with the washing buffer, 100 μL of the gradient diluted anti-IL-36R antibody of the present disclosure or the reference antibody BI655130 (the initial concentration of the antibody was 66 nM, 4-fold gradient dilution) was added to each well, and the plate was incubated at room temperature for 1 h. After the 96-well plate was washed with the washing buffer, 100 μL of horseradish peroxidase-conjugated recombinant protein A/G (TheroScientific, 32490) was added to each well, and the plate was incubated at room temperature for 1 h. After the 96-well plate was washed with the washing buffer, 100 μL of a TMB solution (Thermo, 00-4201-56) was added to each well, and the plate was incubated at room temperature for 2 min. Finally, 100 μL of a stop solution (2 N H₂SO₄) was added to each well to stop the reaction. Absorbance was read at 450 nm using a microplate reader (PE, Envision), the resulting data was analyzed using GraphPad Prism, and EC₅₀ was calculated. Binding EC₅₀ of the chimeric anti-IL-36R antibodies to hIL-36R in an ELISA assay is shown in FIG. 1. and binding EC₅₀ of the chimeric anti-IL-36R antibodies to CynoIL-36R in an ELISA assay is shown in FIG. 2. The binding of BI655130 is shown as a control, and the binding of IgG4 is shown as a negative control.

First: B1
Second: B2
The EC50 of the first is 2.2-fold lower: 1.97 nM for the first, 4.26 nM for the second. The first is the more potent here.

First: B3
Second: B4
The EC50 of the first is 1.6-fold higher: 10.5 nM for the first, 6.38 nM for the second.

Going from B5 to B6, the EC50 falls from 4.87 nM to 2.73 nM (1.8-fold).

B7 gave an EC50 of 2.86 nM.

molecular target: T2, Human IL-1Rrp2/IL-1R6 protein, His Tag …; assay: BLI (ForteBio Octet), antibody on ProA sensor, 1:1 model
Procedure: The affinity of anti-IL-36R antibodies to CynoIL36R-ECD mFc and human IL-1Rrp2/IL-IR6 protein, His Tag (ACROBiosystems, IL2-H52H6) was measured by a ForteBio molecular interaction instrument. […] And then the biosensor was used to bind CynoIL36R-ECD mFc or human IL-1Rrp2/IL-1R6 protein, His Tag which was diluted by a gradient (the initial concentration was 200 nM, 2-fold gradient dilution), the response signals were detected in real time using a Fortebio molecular interaction instrument (SARTORIUS, octet red 96e), and association and dissociation curves were obtained. After the completion of dissociation in each cycle, the biosensor was regenerated for the next capture; the procedure was repeated until the affinity of the different anti-IL-36R antibodies for IL-36R was determined. The resulting data were analyzed by Fortebio Data Analysis 11.0 software in a 1:1 (Langmuir) binding model to determine kₐ (kₒₙ) and kd (koff) values, and the dissociation constant KD was calculated by KD=kd/kₐ. The detection method essentially followed the manufacturer's recommendations, and more information could be found at www.fortebio.com.
Affinity, binding and blocking assays for humanized antibodies hz72C1-1.1, hz72C1-1.2, hz72C1-1.3, hz72C1-2.1, hz72C1-2.2 and hz72C1-2.3 as well as hz84C4-1.1, hz84C4-1.2, hz84C4-1.3, hz84C4-1.4, hz84C4-1.5, hz84C4-2.1, hz84C4-2.2, hz84C4-2.3, hz84C4-2.4 and hz84C4-2.5 were performed according to the methods of Example 4, Example 5. Example 6, Example 7 and Example 8.

Going from B8 to B1, the Kd falls from 0.736 nM to 0.245 nM (3-fold).

Going from B2 to B3, the Kd falls from 0.0351 nM to 0.0111 nM (3.2-fold).

First: B4
Second: B5
The Kd of the first is higher: 0.177 nM for the first, under 0.001 nM for the second.

First: B6
Second: B7
The Kd of the first is 2.2-fold higher: 0.16 nM for the first, 0.0743 nM for the second. The second binds more tightly here.

Compared with B8, B1 is 2.8-fold lower in koff: 4.38e-05 s⁻¹ for the first, 1.57e-05 s⁻¹ for the second.

Going from B2 to B3, the koff falls from 3.91e-06 s⁻¹ to 7.81e-07 s⁻¹ (5-fold).

Going from B4 to B5, the koff falls from 1.12e-05 s⁻¹ to under 1e-07 s⁻¹.

Compared with B6, B7 is 2.1-fold lower in koff: 1.81e-05 s⁻¹ for the first, 8.8e-06 s⁻¹ for the second.

B8 and B1 are within 1.5-fold of each other in kon: 59600 M⁻¹ s⁻¹ for the first, 64100 M⁻¹ s⁻¹ for the second.

First: B2
Second: B3
The kon of the first is 1.6-fold higher: 111000 M⁻¹ s⁻¹ for the first, 70400 M⁻¹ s⁻¹ for the second.

B4 and B5 are within 1.5-fold of each other in kon: 63300 M⁻¹ s⁻¹ for the first, 62400 M⁻¹ s⁻¹ for the second.

B6 and B7 are within 1.5-fold of each other in kon: 113000 M⁻¹ s⁻¹ for the first, 119000 M⁻¹ s⁻¹ for the second.
